{"source": "FireProtDB (doi:10.1021/bi00135a019)", "settings": "Aspergillus oryzae (strain ATCC 42149 / RIB 40), Thermal, DSC, reversible: yes, whole UniProt chain shown", "key": {"[1]": {"settings": "pH 7, PIPES 30 mM, MgCl2 0.40 M"}, "[2]": {"settings": "pH 7, PIPES 30 mM, MgCl2 0.60 M"}, "[3]": {"settings": "pH 7, PIPES 30 mM, MgCl2 0.80 M"}}, "data": [{"protein": "Guanyl-specific ribonuclease T1 wild type, P00651 (protein) MMYSKLLTLTTLLLPTALALPSLVERACDYTCGSNCYSSSDVSTAQAAGYQLHEDGETVGSNSYPHKYNNYEGFDFSVSSPYYEWPILSSGDVYSGGSPGADRVVFNENNQLAGVITHTGASGNNFVECT", "values": [{"measurement": "unfolding enthalpy (van 't Hoff)", "setting": "pH 7, PIPES 30 mM, MgCl2 0.20 M", "result": 122, "unit": "kcal/mol"}, {"measurement": "Tm", "setting": "[1]", "result": 60.1, "unit": "°C"}, {"measurement": "heat capacity change of unfolding", "setting": "[1]", "result": 1.22, "unit": "kcal/mol/K"}, {"measurement": "unfolding enthalpy (calorimetric)", "setting": "[1]", "result": 108, "unit": "kcal/mol"}, {"measurement": "unfolding enthalpy (van 't Hoff)", "setting": "[1]", "result": 122, "unit": "kcal/mol"}, {"measurement": "Tm", "setting": "[2]", "result": 61.9, "unit": "°C"}, {"measurement": "heat capacity change of unfolding", "setting": "[2]", "result": 1.07, "unit": "kcal/mol/K"}, {"measurement": "unfolding enthalpy (calorimetric)", "setting": "[2]", "result": 109, "unit": "kcal/mol"}, {"measurement": "unfolding enthalpy (van 't Hoff)", "setting": "[2]", "result": 125, "unit": "kcal/mol"}, {"measurement": "Tm", "setting": "[3]", "result": 63, "unit": "°C"}, {"measurement": "heat capacity change of unfolding", "setting": "[3]", "result": 1.14, "unit": "kcal/mol/K"}, {"measurement": "unfolding enthalpy (calorimetric)", "setting": "[3]", "result": 111, "unit": "kcal/mol"}, {"measurement": "unfolding enthalpy (van 't Hoff)", "setting": "[3]", "result": 121, "unit": "kcal/mol"}, {"measurement": "Tm", "setting": "pH 7, PIPES 30 mM, NaCl 0 M", "result": 48.9, "unit": "°C"}, {"measurement": "heat capacity change of unfolding", "setting": "pH 7, PIPES 30 mM, NaCl 0 M", "result": 1.35, "unit": "kcal/mol/K"}, {"measurement": "unfolding enthalpy (calorimetric)", "setting": "pH 7, PIPES 30 mM, NaCl 0 M", "result": 95.5, "unit": "kcal/mol"}, {"measurement": "unfolding enthalpy (van 't Hoff)", "setting": "pH 7, PIPES 30 mM, NaCl 0 M", "result": 118, "unit": "kcal/mol"}, {"measurement": "Tm", "setting": "pH 7, PIPES 30 mM, NaCl 0.05 M", "result": 51, "unit": "°C"}, {"measurement": "heat capacity change of unfolding", "setting": "pH 7, PIPES 30 mM, NaCl 0.05 M", "result": 0.93, "unit": "kcal/mol/K"}, {"measurement": "unfolding enthalpy (calorimetric)", "setting": "pH 7, PIPES 30 mM, NaCl 0.05 M", "result": 99.5, "unit": "kcal/mol"}, {"measurement": "unfolding enthalpy (van 't Hoff)", "setting": "pH 7, PIPES 30 mM, NaCl 0.05 M", "result": 120, "unit": "kcal/mol"}, {"measurement": "Tm", "setting": "pH 7, PIPES 30 mM, NaCl 0.10 M", "result": 52.1, "unit": "°C"}, {"measurement": "heat capacity change of unfolding", "setting": "pH 7, PIPES 30 mM, NaCl 0.10 M", "result": 1.6, "unit": "kcal/mol/K"}, {"measurement": "unfolding enthalpy (calorimetric)", "setting": "pH 7, PIPES 30 mM, NaCl 0.10 M", "result": 101, "unit": "kcal/mol"}, {"measurement": "unfolding enthalpy (van 't Hoff)", "setting": "pH 7, PIPES 30 mM, NaCl 0.10 M", "result": 119, "unit": "kcal/mol"}, {"measurement": "Tm", "setting": "pH 7, PIPES 30 mM, NaCl 0.20 M", "result": 53.9, "unit": "°C"}, {"measurement": "heat capacity change of unfolding", "setting": "pH 7, PIPES 30 mM, NaCl 0.20 M", "result": 1.31, "unit": "kcal/mol/K"}, {"measurement": "unfolding enthalpy (calorimetric)", "setting": "pH 7, PIPES 30 mM, NaCl 0.20 M", "result": 105, "unit": "kcal/mol"}, {"measurement": "unfolding enthalpy (van 't Hoff)", "setting": "pH 7, PIPES 30 mM, NaCl 0.20 M", "result": 121, "unit": "kcal/mol"}, {"measurement": "Tm", "setting": "pH 7, PIPES 30 mM, NaCl 0.40 M", "result": 56.5, "unit": "°C"}, {"measurement": "heat capacity change of unfolding", "setting": "pH 7, PIPES 30 mM, NaCl 0.40 M", "result": 1.4, "unit": "kcal/mol/K"}, {"measurement": "unfolding enthalpy (calorimetric)", "setting": "pH 7, PIPES 30 mM, NaCl 0.40 M", "result": 107, "unit": "kcal/mol"}, {"measurement": "unfolding enthalpy (van 't Hoff)", "setting": "pH 7, PIPES 30 mM, NaCl 0.40 M", "result": 121, "unit": "kcal/mol"}, {"measurement": "Tm", "setting": "pH 7, PIPES 30 mM, NaCl 0.60 M", "result": 58.5, "unit": "°C"}, {"measurement": "heat capacity change of unfolding", "setting": "pH 7, PIPES 30 mM, NaCl 0.60 M", "result": 1.31, "unit": "kcal/mol/K"}, {"measurement": "unfolding enthalpy (calorimetric)", "setting": "pH 7, PIPES 30 mM, NaCl 0.60 M", "result": 111, "unit": "kcal/mol"}, {"measurement": "unfolding enthalpy (van 't Hoff)", "setting": "pH 7, PIPES 30 mM, NaCl 0.60 M", "result": 122, "unit": "kcal/mol"}, {"measurement": "Tm", "setting": "pH 7, PIPES 30 mM, NaCl 0.80 M", "result": 60.2, "unit": "°C"}, {"measurement": "heat capacity change of unfolding", "setting": "pH 7, PIPES 30 mM, NaCl 0.80 M", "result": 2.11, "unit": "kcal/mol/K"}, {"measurement": "unfolding enthalpy (calorimetric)", "setting": "pH 7, PIPES 30 mM, NaCl 0.80 M", "result": 111, "unit": "kcal/mol"}, {"measurement": "unfolding enthalpy (van 't Hoff)", "setting": "pH 7, PIPES 30 mM, NaCl 0.80 M", "result": 124, "unit": "kcal/mol"}, {"measurement": "Tm", "setting": "pH 7, PIPES 30 mM, NaCl 1.20 M", "result": 63.2, "unit": "°C"}, {"measurement": "heat capacity change of unfolding", "setting": "pH 7, PIPES 30 mM, NaCl 1.20 M", "result": 1.42, "unit": "kcal/mol/K"}, {"measurement": "unfolding enthalpy (calorimetric)", "setting": "pH 7, PIPES 30 mM, NaCl 1.20 M", "result": 112, "unit": "kcal/mol"}, {"measurement": "unfolding enthalpy (van 't Hoff)", "setting": "pH 7, PIPES 30 mM, NaCl 1.20 M", "result": 126, "unit": "kcal/mol"}, {"measurement": "Tm", "setting": "pH 7, PIPES 30 mM, NaCl 1.60 M", "result": 65.6, "unit": "°C"}, {"measurement": "heat capacity change of unfolding", "setting": "pH 7, PIPES 30 mM, NaCl 1.60 M", "result": 1.37, "unit": "kcal/mol/K"}, {"measurement": "unfolding enthalpy (calorimetric)", "setting": "pH 7, PIPES 30 mM, NaCl 1.60 M", "result": 115, "unit": "kcal/mol"}, {"measurement": "unfolding enthalpy (van 't Hoff)", "setting": "pH 7, PIPES 30 mM, NaCl 1.60 M", "result": 125, "unit": "kcal/mol"}, {"measurement": "Tm", "setting": "pH 7, PIPES 30 mM", "result": 48.9, "unit": "°C"}, {"measurement": "heat capacity change of unfolding", "setting": "pH 7, PIPES 30 mM", "result": 1.35, "unit": "kcal/mol/K"}, {"measurement": "unfolding enthalpy (calorimetric)", "setting": "pH 7, PIPES 30 mM", "result": 95.5, "unit": "kcal/mol"}, {"measurement": "unfolding enthalpy (van 't Hoff)", "setting": "pH 7, PIPES 30 mM", "result": 119, "unit": "kcal/mol"}, {"measurement": "Tm", "setting": "pH 7.5, PIPES 30 mM", "result": 46.7, "unit": "°C"}, {"measurement": "heat capacity change of unfolding", "setting": "pH 7.5, PIPES 30 mM", "result": 1.71, "unit": "kcal/mol/K"}, {"measurement": "unfolding enthalpy (calorimetric)", "setting": "pH 7.5, PIPES 30 mM", "result": 93.2, "unit": "kcal/mol"}, {"measurement": "unfolding enthalpy (van 't Hoff)", "setting": "pH 7.5, PIPES 30 mM", "result": 121, "unit": "kcal/mol"}, {"measurement": "Tm", "setting": "pH 8, PIPES 30 mM", "result": 45.8, "unit": "°C"}, {"measurement": "heat capacity change of unfolding", "setting": "pH 8, PIPES 30 mM", "result": 0.88, "unit": "kcal/mol/K"}, {"measurement": "unfolding enthalpy (calorimetric)", "setting": "pH 8, PIPES 30 mM", "result": 91.6, "unit": "kcal/mol"}, {"measurement": "unfolding enthalpy (van 't Hoff)", "setting": "pH 8, PIPES 30 mM", "result": 116, "unit": "kcal/mol"}, {"measurement": "Tm", "setting": "pH 9, glycine 30 mM", "result": 40.7, "unit": "°C"}, {"measurement": "heat capacity change of unfolding", "setting": "pH 9, glycine 30 mM", "result": 0.42, "unit": "kcal/mol/K"}, {"measurement": "unfolding enthalpy (calorimetric)", "setting": "pH 9, glycine 30 mM", "result": 76.5, "unit": "kcal/mol"}, {"measurement": "unfolding enthalpy (van 't Hoff)", "setting": "pH 9, glycine 30 mM", "result": 114, "unit": "kcal/mol"}, {"measurement": "Tm", "setting": "pH 10, glycine 30 mM", "result": 39.4, "unit": "°C"}, {"measurement": "unfolding enthalpy (calorimetric)", "setting": "pH 10, glycine 30 mM", "result": 76.9, "unit": "kcal/mol"}, {"measurement": "unfolding enthalpy (van 't Hoff)", "setting": "pH 10, glycine 30 mM", "result": 104, "unit": "kcal/mol"}]}]}
